Values belong to the sequence of their own block, whether it stands above or below them.
Experiments:
HLA-A*02:11 = experiment: IEDB peptide-MHC binding, purified MHC/competitive/fluorescence; filed as Kd, often an IC50 or EC50 that approximates it; ≥ and ≤ were set here for values at or beyond the usual limits of such assays; settings: source organism: Mycobacterium tuberculosis variant bovis BCG str. Pasteur 1173P2
HLA-B*15:42 = experiment: as above
HLA-A*02:01 [1] = experiment: as above; settings: source organism: Mycobacterium tuberculosis variant bovis BCG str. Pasteur 1173P2
HLA-B*83:01 = experiment: as above
HLA-B*27:20 = experiment: as above
HLA-B*45:06 = experiment: as above
HLA-C*04:01 = experiment: as above; settings: source organism: Mycobacterium tuberculosis variant bovis BCG str. Pasteur 1173P2
HLA-B*07:02 [2] = experiment: IEDB peptide-MHC binding, purified MHC/competitive/radioactivity; ≥ and ≤ were set here for values at or beyond the usual limits of such assays; settings: source organism: dengue virus type 4
HLA-B*35:01 [3] = experiment: IEDB peptide-MHC binding, purified MHC/competitive/radioactivity; filed as Kd, often an IC50 or EC50 that approximates it; ≥ and ≤ were set here for values at or beyond the usual limits of such assays; settings: source organism: Dengue virus 4 Philippines/H241/1956
HLA-B*53:01 = experiment: as above; settings: source organism: Dengue virus 4 Philippines/H241/1956
HLA-B*40:01 = experiment: IEDB peptide-MHC binding, purified MHC/direct/fluorescence; filed as Kd, often an IC50 or EC50 that approximates it; ≥ and ≤ were set here for values at or beyond the usual limits of such assays
HLA-B*58:01 = experiment: as above
HLA-C*12:03 = experiment: as above; settings: source organism: Vibrio cholerae 2740-80
HLA-B*35:01 [4] = experiment: as above; settings: source organism: Vibrio cholerae
HLA-B*08:01 = experiment: as above
HLA-B*44:02 = experiment: as above; settings: source organism: Vibrio cholerae
HLA-A*02:01 [5] = experiment: as above
HLA-A*31:01 [6] = experiment: as above; settings: source organism: Vibrio cholerae
HLA-A*01:01 = experiment: as above
HLA-B*07:02 [7] = experiment: as above
HLA-B*27:05 = experiment: as above
HLA-A*69:01 = experiment: as above
HLA-B*15:01 = experiment: as above
HLA-A*03:01 = experiment: as above
HLA-C*06:02 [8] = experiment: as above; settings: source organism: Vibrio cholerae 2740-80
HLA-A*11:01 = experiment: as above
HLA-A*26:01 = experiment: as above; settings: source organism: Vibrio cholerae
HLA-B*46:01 [9] = experiment: IEDB peptide-MHC binding, purified MHC/competitive/fluorescence; filed as Kd, often an IC50 or EC50 that approximates it; ≥ and ≤ were set here for values at or beyond the usual limits of such assays; settings: source organism: Vibrio cholerae 2740-80
HLA-A*02:50 = experiment: as above; settings: source organism: Vibrio cholerae 2740-80
HLA-B*48:01 = experiment: IEDB peptide-MHC binding, purified MHC/direct/fluorescence; filed as Kd, often an IC50 or EC50 that approximates it; ≥ and ≤ were set here for values at or beyond the usual limits of such assays
HLA-B*38:01 = experiment: as above; settings: source organism: Yersinia pestis CA88-4125
HLA-B*46:01 [10] = experiment: as above; settings: source organism: Yersinia pestis
HLA-B*15:17 = experiment: as above; settings: source organism: Yersinia pestis
HLA-B*57:01 = experiment: as above; settings: source organism: Yersinia pestis
HLA-B*51:01 = experiment: as above; settings: source organism: Yersinia pestis
HLA-B*15:09 = experiment: as above; settings: source organism: Yersinia pestis CA88-4125
HLA-B*18:01 = experiment: as above; settings: source organism: Yersinia pestis
HLA-B*39:01 = experiment: as above; settings: source organism: Yersinia pestis CA88-4125
HLA-A*31:01 [11] = experiment: IEDB peptide-MHC binding, purified MHC/competitive/fluorescence; filed as Kd, often an IC50 or EC50 that approximates it; ≥ and ≤ were set here for values at or beyond the usual limits of such assays; settings: source organism: Yersinia pestis KIM10+
HLA-B*73:01 = experiment: as above; settings: source organism: Burkholderia mallei SAVP1
HLA-C*07:02 = experiment: IEDB peptide-MHC binding, purified MHC/direct/fluorescence; filed as Kd, often an IC50 or EC50 that approximates it; ≥ and ≤ were set here for values at or beyond the usual limits of such assays; settings: source organism: Yellow fever virus
HLA-C*06:02 [12] = experiment: IEDB peptide-MHC binding, purified MHC/competitive/fluorescence; filed as Kd, often an IC50 or EC50 that approximates it; ≥ and ≤ were set here for values at or beyond the usual limits of such assays; settings: source organism: Yellow fever virus
HLA-B*35:01 [13] = experiment: IEDB peptide-MHC binding, purified MHC/competitive/radioactivity; ≥ and ≤ were set here for values at or beyond the usual limits of such assays; settings: source organism: Human papillomavirus 16
HLA-B*40:02 = experiment: IEDB peptide-MHC binding, cellular MHC/competitive/fluorescence; ≥ and ≤ were set here for values at or beyond the usual limits of such assays; settings: source organism: Homo sapiens
[14] = source organism: Mycobacterium tuberculosis variant bovis BCG str. Pasteur 1173P2
[15] = source organism: Vibrio cholerae
[16] = source organism: Yersinia pestis
[17] = source organism: Yersinia pestis CA88-4125
[18] = source organism: Yellow fever virus

Sequence: AEFGPWQTV
Kd (HLA-A*02:11): 125 nM
Kd (HLA-B*15:42; [14]): ≥ 5 µM
Kd (HLA-A*02:01 [1]): 1640 nM
Kd (HLA-B*83:01; [14]): ≥ 5 µM
Kd (HLA-B*27:20; [14]): 185 nM
Kd (HLA-B*45:06; [14]): ≥ 5 µM
Kd (HLA-C*04:01): ≥ 5 µM

Sequence: LPSIVREAL
IC50 (HLA-B*07:02 [2]): 0.31 nM
Kd (HLA-B*35:01 [3]): 82.8 nM
Kd (HLA-B*53:01): 40.6 nM

Sequence: MMFDAMGAL
Kd (HLA-B*40:01; [15]): ≥ 20 µM
Kd (HLA-B*58:01; [15]): ≥ 20000 nM
Kd (HLA-C*12:03): 46 nM
Kd (HLA-B*35:01 [4]): 18.4 nM
Kd (HLA-B*08:01; [15]): 5.76 µM
Kd (HLA-B*44:02): ≥ 20 µM
Kd (HLA-A*02:01 [5]; [15]): 328 nM
Kd (HLA-A*31:01 [6]): 921 nM
Kd (HLA-A*01:01; [15]): 11.2 µM
Kd (HLA-B*07:02 [7]; [15]): 5.75 µM
Kd (HLA-B*27:05; [15]): ≥ 20 µM
Kd (HLA-A*69:01; [15]): 33.1 nM
Kd (HLA-B*15:01; [15]): 37.2 nM
Kd (HLA-A*03:01; [15]): 1460 nM
Kd (HLA-C*06:02 [8]): 1480 nM
Kd (HLA-A*11:01; [15]): 9.31 µM
Kd (HLA-A*26:01): 1230 nM
Kd (HLA-B*46:01 [9]): 22.7 nM
Kd (HLA-A*02:50): 0.2 nM

Sequence: RPQLWRYRW
Kd (HLA-B*48:01; [16]): ≥ 20000 nM
Kd (HLA-B*40:01; [16]): ≥ 20 µM
Kd (HLA-B*58:01; [17]): 328 nM
Kd (HLA-B*38:01): ≥ 20 µM
Kd (HLA-B*46:01 [10]): ≥ 20 µM
Kd (HLA-B*08:01; [17]): ≥ 20 µM
Kd (HLA-B*15:17): ≥ 20 µM
Kd (HLA-B*57:01): 343 nM
Kd (HLA-A*02:01 [5]; [16]): ≥ 20000 nM
Kd (HLA-B*51:01): ≥ 20 µM
Kd (HLA-B*15:09): ≥ 20 µM
Kd (HLA-A*01:01; [16]): ≥ 20 µM
Kd (HLA-B*07:02 [7]; [16]): 0.97 µM
Kd (HLA-B*18:01): ≥ 20 µM
Kd (HLA-B*27:05; [16]): ≥ 20 µM
Kd (HLA-A*69:01; [16]): ≥ 20000 nM
Kd (HLA-B*15:01; [16]): ≥ 20000 nM
Kd (HLA-A*03:01; [16]): ≥ 20000 nM
Kd (HLA-B*39:01): 3.18 µM
Kd (HLA-A*11:01; [16]): ≥ 20 µM
Kd (HLA-A*31:01 [11]): 1810 nM

Sequence: RRFWVGYQQ
Kd (HLA-B*73:01): 893 nM

Sequence: RRRLRTLVL
Kd (HLA-B*48:01; source organism: Yellow fever virus 17D): 2930 nM
Kd (HLA-C*07:02): 225 nM
Kd (HLA-B*15:42; [18]): ≥ 5 µM
Kd (HLA-B*83:01; [18]): ≥ 5 µM
Kd (HLA-B*27:20; [18]): 0.2 nM
Kd (HLA-B*45:06; [18]): ≥ 5 µM
Kd (HLA-C*06:02 [12]): 50.5 nM

Sequence: SAFRCFIVY
IC50 (HLA-B*35:01 [13]): 1.4 nM

IC50 (HLA-B*40:02): 1100 nM
Sequence: SELSPGRSV

— the Immune Epitope Database (IEDB)
